Measured values from US20230002478A1 (published 2023).

Tests used:
[1] = target: SARS-CoV-2 S1 (SARS-CoV-2, UniProt P0DTC2 16-685); experiment: SPR
[2] = target: SARS-CoV-2 S Trimer (SARS-CoV-2, UniProt P0DTC2 16-1213); experiment: SPR

Binder	Kd [1] [nM]	Kd [2] [nM]
antibody 202-03 (Fc fusion) EVQLVESGGGLVQPGGSLRLSCAASGFTFSPSWMGWFRQAPGKEREFVATINEYGGRNYADSVKGRFTISADNSKNTAYLQMNSLKPEDTAVYYCARVDRDFDYWGQGTLVTVSS	0.011	0.299
antibody 339-031 (Fc fusion) EVQLVESGGGLVQPGGSLRLSCAASGSTFSINAMGWFRQAPGKEREFVAGITSSGGYTNYADSVKGRFTISADNSKNTAYLQMNSLKPEDTAVYYCAADGVPEYSDYASGPVWGQGTLVTVSS	0.006	< 0.014
